Test results taken from US20050048603A1 (priority 2001, published 2005).
Where a chain is given by its changes, count along the chain named.

B1: mycoAC204-443 (protein)
chain: MRGSHHHHHHGSDTARAEAVMEAEHDRSEALLANMLPASIAERLKEPERNIIADKYDEASVLFADIVGFTERASSTAPADLVRFLDRLYSAFDELVDQHGLEKIKVSGDSYMVVSGVPRPRPDHTQALADFALDMTNVAAQLKDPRGNPVPLRVGLATGPVVAGVVGSRRFFYDVWGDAVNVASRMESTDSVGQIQVPDEVYERLKDDFVLRERGHINVKGKGVMRTWYLIGRKVAADPGEVRGAEPRTAGV
B2: mycoAC204-443D300A (enzyme)
chain: B1 chain with D109A
B3: mycoAC204-443D256A (enzyme)
chain: B1 chain with D65A

Experiments:
mycoAC204-443R376A = biological target: T1, mycoAC204-443R376A (Mycobacterium tuberculosis, UniProt P9WQ35 204-443)
T1 sequence: B1 chain with R185A

Binder	specific adenylyl cyclase activity against protein concentration (P9WQ35)	Kd (mycoAC204-443R376A)
B1	From 50 to 300 nM it increased five-fold	–
B2	–	2000 nM
B3	–	2000 nM
